doi:10.1101/605725

Target: GST-Nxf2 first LRR region (1-285) (UniProt Q9VV73 1-285)
Experiment: EMSA

GST-Nxf2 first LRR region (1-285), sequence (Q9VV73 1-285): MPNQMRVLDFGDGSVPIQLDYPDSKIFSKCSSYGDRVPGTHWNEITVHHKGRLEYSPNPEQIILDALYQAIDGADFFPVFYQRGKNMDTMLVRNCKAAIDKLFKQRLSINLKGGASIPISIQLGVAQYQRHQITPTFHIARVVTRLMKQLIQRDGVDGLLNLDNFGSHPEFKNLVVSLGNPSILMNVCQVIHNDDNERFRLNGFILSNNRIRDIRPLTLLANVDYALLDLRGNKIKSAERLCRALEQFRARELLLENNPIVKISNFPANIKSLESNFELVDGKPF

Does AGCACCGUAAAGACGC (ssRNA) [16-mer ssRNA] bind?
Result: binds
